US20240392020A1 (JIANGSU HENGRUI PHARMACEUTICALS, published 2024)
Values belong to the binder of their own block, whether it stands above or below them.

Experiments:
HJ-4-L2 = target: T1, HJ-4-L2; assay: mass spectrometry of the product of four co-transfected chains of HJ-4; mispairing of heavy chain 2 with light chain 3
T1 construct: also called chain 3 of HJ-4

[1] = target: T2, Heavy chain of U0 (with a knob modification); assay: co-expression (B/U-2), mass spectrometry
T2 construct: single antibody chain, co-expressed; also called B-H2
T2 sequence (heavy, as listed by the source): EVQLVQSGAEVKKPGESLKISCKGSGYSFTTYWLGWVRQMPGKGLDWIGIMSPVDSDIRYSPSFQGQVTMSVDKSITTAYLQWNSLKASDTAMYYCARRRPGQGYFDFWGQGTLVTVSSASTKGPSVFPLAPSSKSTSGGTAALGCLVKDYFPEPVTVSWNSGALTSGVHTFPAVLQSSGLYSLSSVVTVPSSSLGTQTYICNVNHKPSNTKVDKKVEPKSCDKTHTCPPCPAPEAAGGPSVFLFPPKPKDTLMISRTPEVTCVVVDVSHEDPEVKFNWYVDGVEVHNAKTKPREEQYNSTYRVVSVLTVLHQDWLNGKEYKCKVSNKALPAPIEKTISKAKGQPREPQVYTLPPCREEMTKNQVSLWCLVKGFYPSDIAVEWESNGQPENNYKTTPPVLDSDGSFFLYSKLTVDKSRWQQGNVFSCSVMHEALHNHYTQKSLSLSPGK

[2] = target: T3, Heavy chain of B0 (with a hole modification); assay: co-expression (B/U-2), mass spectrometry
T3 construct: single antibody chain, co-expressed; also called B-H1 of B/U-2
T3 sequence (heavy, as listed by the source): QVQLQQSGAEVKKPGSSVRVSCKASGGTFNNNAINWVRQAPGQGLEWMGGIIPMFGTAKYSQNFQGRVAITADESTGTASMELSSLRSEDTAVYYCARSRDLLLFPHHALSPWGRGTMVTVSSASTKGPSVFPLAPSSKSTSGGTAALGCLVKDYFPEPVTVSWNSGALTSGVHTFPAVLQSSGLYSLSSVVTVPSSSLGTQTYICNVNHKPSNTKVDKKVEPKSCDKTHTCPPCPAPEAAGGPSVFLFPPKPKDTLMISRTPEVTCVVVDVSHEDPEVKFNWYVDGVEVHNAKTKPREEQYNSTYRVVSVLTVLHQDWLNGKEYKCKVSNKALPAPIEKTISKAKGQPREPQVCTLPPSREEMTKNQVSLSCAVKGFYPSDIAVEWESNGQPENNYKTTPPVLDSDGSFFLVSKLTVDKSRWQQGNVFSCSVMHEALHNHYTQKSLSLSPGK

[3] = target: T4, HJ-3-H1 (heavy chain of H0, knob, CH1 replaced with T.10-L1); assay: co-expression of three chains, mass spectrometry
T4 construct: single antibody chain, co-expressed

HJ-1-L1 = target: T5, HJ-1-L1; assay: mass spectrometry of the product of four co-transfected chains of HJ-1; mispairing of heavy chain 2 with light chain 3
T5 construct: also called chain 3 of HJ-1

B1: HJ-4-H1 (other)
heavy: EVQLVESGGGLVQPGGSLRLSCAASGFTFSHYYMAWVRQAPGKGLEWVTSISYEGDITYYGDSVKGRFTISRDNSKNTLYLQMNSLRAEDTATYYCASQTLRESFDYWGQGTLVTVSSASTKGPSVFPLAPSSKSTSGGTAALGCLVKDYFPEPVTVSWNSGALTSGVHTFPAVLQSSGLYSLSSVVTVPSSSLGTQTYICNVNHKPSNTKVDKKVEPKSCDKTHTCPPCPAPEAAGGPSVFLFPPKPKDTLMISRTPEVTCVVVDVSHEDPEVKFNWYVDGVEVHNAKTKPREEQYNSTYRVVSVLTVLHQDWLNGKEYKCKVSNKALPAPIEKTISKAKGQPREPQVCTLPPSREEMTKNQVSLSCAVKGFYPSDIAVEWESNGQPENNYKTTPPVLDSDGSFFLVSKLTVDKSRWQQGNVFSCSVMHEALHNHYTQKSLSLSPGKDYKDDDDK
notes: also called chain 2 of HJ-4
binding result (HJ-4-L2): no binding

B3: Light chain of J1 (other)
light: SIVMTQTPLSLSVTPGQPASISCKASQSVSSDVTWYLQKPGQSPQLLIYYVSEHYTGVPDRFSGSGYGTDFTLKISRVEAEDVGVYYCQQHHRFPLTFGQGTKLEIKRTVAAPSVFIFPPSDEQLKSGTASVVCLLNNFYPREAKVQWKVDNALQSGNSQESVTEQDSKDSTYSLSSTLTLSKADYEKHKVYACEVTHQGLSSPVTKSFNRGEC
notes: single antibody chain, co-expressed; also called HJ-1-L2; HJ-3-L2
binding result [3]: no binding

Next, values leading:

binding result [1]: no binding
binding result [2]: no binding
B2: Chain formed by replacement of CL of light chain of B0 with O.20 (other)
light: SSELTQDPAVSVALGQTVRVTCQGDSLRSYYASWYQQKPGQAPVLVIYGKNNRPSGIPDRFSGSSSGNTASLTITGAQAEDEADYYCSSRDSSGNHWVFGGGTELTVLSGAPRFLTRPLAFVVSVGKDATLSSQIVGNPTPQVSWEKDKQPVTAGARFRLAQDGDLYRLKILDLQLSDSGQYVSRARNAIGEAFACLGLQVDAEA
notes: single antibody chain, co-expressed; also called B-L1 of B/U-1 and B/U-2

binding result (HJ-1-L1): no binding
B4: HJ-1-H2 (other)
heavy: EVQLVQSGAEVKKPGSSVKVSCKASGYTFSNYLIEWVRQAPGQGLEWIGVIDPGVGDTNYNENFKGRATLTADKSTSTAYIELSSLRSEDTAVYYCAREDNTGTAFDYWGQGTTVTVSSASTKGPSVFPLAPSSKSTSGGTAALGCLVKDYFPEPVTVSWNSGALTSGVHTFPAVLQSSGLYSLSSVVTVPSSSLGTQTYICNVNHKPSNTKVDKKVEPKSCDKTHTCPPCPAPEAAGGPSVFLFPPKPKDTLMISRTPEVTCVVVDVSHEDPEVKFNWYVDGVEVHNAKTKPREEQYNSTYRVVSVLTVLHQDWLNGKEYKCKVSNKALPAPIEKTISKAKGQPREPQVCTLPPSREEMTKNQVSLSCAVKGFYPSDIAVEWESNGQPENNYKTTPPVLDSDGSFFLVSKLTVDKSRWQQGNVFSCSVMHEALHNHYTQKSLSLSPGKDYKDDDDK
notes: also called chain 2 of HJ-1
